Measurements as given in paper PMC2722044.

Tests used:
[1] = target: VLRB.2D, lamprey variable lymphocyte receptor B specific for hen egg white lysozyme (lamprey); test: ITC
[2] = target: VLRB.2DMut13, in vitro affinity-matured variant of VLRB.2D (lamprey); test: ITC

## hen egg white lysozyme (from UniProt P00698 19-147) (enzyme)
[1]
  Kd: 430 nM
[2]
  Kd: 34 nM
